One molecule from PMC7889167 (mAbs, 2021) can be followed below.

This experiment has as its target biotinylated hIL-21 R (human, UniProt Q9HBE5, biotin (site not stated)). Description: AlphaScreen or HTRF. For orientation: Alpha assays give light when donor and acceptor beads are brought close together.

Chain of biotinylated hIL-21 R (Q9HBE5 20-232): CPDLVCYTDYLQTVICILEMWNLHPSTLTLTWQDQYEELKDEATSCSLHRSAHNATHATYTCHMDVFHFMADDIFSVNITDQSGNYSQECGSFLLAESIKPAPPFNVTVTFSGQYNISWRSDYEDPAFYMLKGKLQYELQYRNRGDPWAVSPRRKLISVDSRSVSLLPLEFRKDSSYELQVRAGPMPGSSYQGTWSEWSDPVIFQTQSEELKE

B1: europium cryptate-labeled MJ4-2 (antibody, V domains shown)
VH: EVQLVESGGGLVQPGRSLRLSCAASGVTFSDYHMAWVRQAPKKGLEWVATIIYDAARTYYRDSVKGRFTISRDNAKNSLYLQMNSLRAEDTAVYYCATWQTTGTPGWFAYWGQGTLVTVSS
VL: DIQMTQSPSSLSASVGDRVTITCGASQSVSISRFNLMHWYQQKPGHQPKLLIYRASNLASGVPSRFSGSGSGTDFTLTINPLQAEDFATYYCQQSRESPPTFGGGTKVEIK
B1: the binding result is reported as “binds”.
